Common to all, as to format: cell-based, human
One test deals with EGFR. Nature of the test: tyrosine phosphorylation of EGFR in HUVS cells. Here is the method: FIG. 10: FIG. 10 illustrates: (A), HUVS cells were stimulated with PTN for 2, 5, and 15 minutes. Cell lysates were used to immunoprecipitate EGFR and the immunoprecipitates were analyzed in Western blots probed with anti-phosphotyrosine antibodies. In (B), Lysates from PTN-stimulated HUVS cells that express EGFR were incubated with GST-RPTPβ/ζ D1, GST-RPTPβ/ζ D1 (C1932S), and GST-RPTPβ/ζ D1 (D1900A), a “substrate trap” mutant, which captures the substrate phosphoryl-intermediate in the active site of RPTPβ/ζ with high affinity and specificity. The proteins captured were analyzed in Western blots probed with anti-EGFR antibodies and separately with anti-GST antibodies. In (C), HUVS cells were co-transfected with a full-length EGFR and the vector pC4-Fv1E encoding the Fv domain of FKBP12 needed for enforced dimerization induced by AP20187 (Clackson, Yang et al. 1998) in frame with the intracellular domain of RPTPβ/ζ. AP20187 (2 μM) enforced homodimerization of RPTPβ/ζ and stimulated increase in tyrosine phosphorylation of EGFR 2′, 5′, 10′, and 20′ after stimulation compared with control cells transfected with EGFR alone. (D) A retroviral vector (pSM2) encoding shRNA to “knock down” RPTPβ/ζ was tested in HUVS cells that express endogenous RPTPβ/ζ and EGFR. The cells were stimulated with PTN and cell lysates were used to prepare immunoprecipitates with anti-EGFR antibodies and the immunoprecipitates analyzed in Western blots probed with anti-phosphotyrosine antibodies.
Cell lysates prepared in a lysis buffer containing 50 mM Tris, 150 mM NaCl pH 7.5, 1% NP40, 0.25% sodium deoxycholate, 0.1% SDS, Complete EDTA-free Protease Inhibitor Cocktail (Roche, Indianapolis, Ind.), and 2 mM sodium orthovanadate were pre-cleared by incubation with 2 μg antibodies followed by one hour incubation with protein G-agarose beads. The beads were washed 4 times in the same lysis buffer, eluted in loading buffer containing 240 mM Tris pH 6.8, 40% glycerol, 20% SDS, 2.5% β-mercaptoethanol and 0.01% bromophenol blue and analyzed in Western blots probed with different antibodies as individually described.
PI3K also is activated by an activated Epidermal Growth Factor Receptor (EGFR). We therefore investigated the possibility EGFR is implicated in the translocation of β-catenin to nucleus in PTN-stimulated cells. HUVS were stimulated with PTN for 2, 5, and 15 minutes. Lysates from these cells were immunoprecipitated with anti-EGFR antibodies and the immunoprecipitates were analyzed in Western blots probed with anti-phosphotyrosine antibodies. Tyrosine phosphorylation of EGFR was increased about 5.8-fold at two minutes after HUVS cells were stimulated with PTN, about 11-fold at 5 minutes, and about 5-fold 15 minutes after stimulation with PTN (FIG. 10A).
To establish whether phosphorylation of EGFR is dependent on enforced dimerization of RPTPβ/ζ, which is the consequence of the interaction of PTN with RPTPβ/ζ, HUVS cells were then co-transfected with a full-length EGFR and the vector pC4-Fv1 E. The vector pC4-Fv1 E encodes the Fv domain of FKBP12 in frame with the intracellular domain of RPTPβ/ζ; it effectively enforces dimerization of RPTPβ/ζ when cells are stimulated with AP20187. AP20187 (2 μM) was added to HUVS cells that expressed full-length EGFR and pC4-Fv1 E as above. […]

In a further test the test system is Src. Nature of the test: phospho-Src tyrosine 416 Western blot in PTN-stimulated U87MG cells. The following applies: 50 ng PTN/ml for 5, 10, 15 minutes. In general terms: A western blot detects proteins with antibodies after separation by electrophoresis.
The test system of a further test is β-catenin. The test can be described thus: β-catenin import into nuclei of HUVS cells (Western blot of nuclear extracts). The method, then:
FIG. 13: FIG. 13 illustrates: (A) human umbilical vein stromal cells not stimulated or stimulated for 60 minutes with 1, 10, 25, 50, 100 and 200 ng/ml of PTN were used to isolate their nuclei and prepare lysates that were analyzed in Western blots probed with anti-β-catenin antibodies (upper panel) and anti-Orc-2 antibodies (lower panel). In (B), human umbilical vein stromal cells not stimulated or stimulated with 100 ng/ml of PTN for 5, 15, 30, 60 minutes were used to isolate their nuclei and prepare lysates that were analyzed in Western blots probed with anti-β-catenin antibodies (upper panel) and anti-Orc-2 antibodies (lower panel).
Cells at confluence were washed with PBS ×2 and incubated for 10 minutes in a lysis buffer containing 100 mM HEPES pH 7.9, 100 mM KCl, […], 1 mM DTT, Complete EDTA-free Protease Inhibitor Cocktail (Roche, Indianapolis, Ind.) and 0.04% IGEPAL (Sigma-Aldrich Co. Ltd, Poole, Dorset, UK). […] Samples were centrifuged and the supernatant nuclear extract was collected and analyzed in Western-blots as described below. […] It was detected with anti-Orc2 antibodies; tubulin was used to mark cytosolic fractions and detected with anti-tubulin antibodies. Samples of the nuclear fractions were used only if tubulin was not detected. […]

B1: pleiotrophin (protein, UniProt P21246 33-168, looked up)
Pleiotrophin: GKKEKPEKKVKKSDCGEWQWSVCVPTSGDCGLGTREGTRTGAECKQTMKTQRCKIPCNWKKQFGAECKYQFQAWGECDLNTALKTRTGSLKRALHNAECQKTVTISKPCGKLTKPKPQAESKKKKKEGKKQEKMLD
B1: the “increase in tyrosine phosphorylation of EGFR” value in the test with EGFR (5 minutes after PTN) was “about 11 fold”; in the test with EGFR (15 minutes after PTN) it was “about 5 fold”; in the test on EGFR (cells transfected with pSM2 control vector), around 5 fold; in the test on EGFR (two minutes after PTN), “about 5.8 fold”. The “tyrosine phosphorylation of EGFR” value in the test with EGFR (RPTPβ/ζ knocked down with shRNA) is recorded as “failed to stimulate”. Also, the “tyrosine phosphorylation of Src tyrosine 416” value with Src is “not increased”. The β-catenin in nuclei entry in the test on β-catenin (1-200 ng/ml PTN, 5-60 minutes) is “concentration and time-dependent increase”. Besides, the “PTN concentration at which increase in nuclear β-catenin was seen” value with β-catenin (60 minutes) worked out at 10 ng/mL.

Values taken from patent US20210009673A1, “METHODS FOR REGULATING BREAST CANCERS” (priority 2018, published 2021).
